Where two headings read alike, the source gives them in different places.
Legend:
active hMMP-9(cat)_His6 [1] = molecular target: T1, active hMMP-9(cat)_His6 (UniProt P14780 107-449); assay: enzyme inhibition; substrate peptide
active hMMP-9(cat)_F110A = active hMMP-9(cat)_F110A (UniProt P14780 107-449); assay: substrate peptide degradation inhibition
active hMMP-9(cat)_L187A = active hMMP-9(cat)_L187A (UniProt P14780 107-449); assay: substrate peptide degradation inhibition
active hMMP-9(cat)_Y179A = active hMMP-9(cat)_Y179A (UniProt P14780 107-449); assay: substrate peptide degradation inhibition
active hMMP-9(cat)_His6 [2] = molecular target: T1, active hMMP-9(cat)_His6; assay: enzyme inhibition; substrate peptide; remark: listed apart in the source
active hMMP-9(cat)_Y393A = active hMMP-9(cat)_Y393A (UniProt P14780 107-449); assay: substrate peptide enzyme inhibition
active hMMP-9(cat)_L397A = active hMMP-9(cat)_L397A (UniProt P14780 107-449); assay: substrate peptide enzyme inhibition
active hMMP-9(cat)_Y423A = active hMMP-9(cat)_Y423A (UniProt P14780 107-449); assay: substrate peptide enzyme inhibition
active hMMP-9(cat)_V398A = active hMMP-9(cat)_V398A (UniProt P14780 107-449); assay: substrate peptide enzyme inhibition
active hMMP-9(cat)_R424T = active hMMP-9(cat)_R424T (UniProt P14780 107-449); assay: substrate peptide enzyme inhibition
active hMMP-9(cat)_M422I = active hMMP-9(cat)_M422I (UniProt P14780 107-449); assay: substrate peptide enzyme inhibition
active hMMP-9(cat)_Y420A = active hMMP-9(cat)_Y420A (UniProt P14780 107-449); assay: substrate peptide enzyme inhibition
active hMMP-9(cat)_Y420A, sequence (P14780 107-449 Y420A): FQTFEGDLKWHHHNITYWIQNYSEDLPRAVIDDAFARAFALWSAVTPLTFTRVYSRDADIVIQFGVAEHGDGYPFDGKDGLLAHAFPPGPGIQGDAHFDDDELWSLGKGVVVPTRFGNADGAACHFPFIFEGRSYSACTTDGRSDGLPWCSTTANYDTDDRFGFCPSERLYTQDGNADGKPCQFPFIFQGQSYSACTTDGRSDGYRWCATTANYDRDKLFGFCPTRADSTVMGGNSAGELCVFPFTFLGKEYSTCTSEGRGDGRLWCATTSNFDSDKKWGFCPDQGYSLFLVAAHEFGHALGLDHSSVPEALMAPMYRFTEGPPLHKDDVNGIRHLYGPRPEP

active hMMP-9(cat)_M422I, sequence (P14780 107-449 M422I): as the sequence (P14780 107-449 Y420A) above, with A314Y, M316I counted along it
active hMMP-9(cat)_Y179A, sequence (P14780 107-449 Y179A): as the sequence (P14780 107-449 Y420A) above, with Y73A, A314Y counted along it
active hMMP-9(cat)_V398A, sequence (P14780 107-449 V398A): as the sequence (P14780 107-449 Y420A) above, with V292A, A314Y counted along it
active hMMP-9(cat)_Y393A, sequence (P14780 107-449 Y393A): as the sequence (P14780 107-449 Y420A) above, with Y287A, A314Y counted along it
T1 sequence (P14780 107-449): as the sequence (P14780 107-449 Y420A) above, with A314Y counted along it
active hMMP-9(cat)_L397A, sequence (P14780 107-449 L397A): as the sequence (P14780 107-449 Y420A) above, with L291A, A314Y counted along it
active hMMP-9(cat)_F110A, sequence (P14780 107-449 F110A): as the sequence (P14780 107-449 Y420A) above, with F4A, A314Y counted along it
active hMMP-9(cat)_Y423A, sequence (P14780 107-449 Y423A): as the sequence (P14780 107-449 Y420A) above, with A314Y, Y317A counted along it
active hMMP-9(cat)_R424T, sequence (P14780 107-449 R424T): as the sequence (P14780 107-449 Y420A) above, with A314Y, R318T counted along it
active hMMP-9(cat)_L187A, sequence (P14780 107-449 L187A): as the sequence (P14780 107-449 Y420A) above, with L81A, A314Y counted along it

B1: active MMP-9-binding peptide M91002 (designed binder)
chain: GSGMKETAAAKFERQHMDSPDLGTDDDDKAMADIGSANSDPQFGLFSKYRTPNCRTGRGPACQMGFQPVCGSDMSTYANECTLCMKIREGGHNIKIIRNGPCGASAAA
B1 gave an IC50 (active hMMP-9(cat)_His6 [1]) of 5 nM.

B2: active MMP-9-binding peptide M91005 (designed binder)
chain: GSGMKETAAAKFERQHMDSPDLGTDDDDKAMADIGSANSDPQFGLFSKYRTPNCRKRGGPSCQMSYNPVCGSDMSTYANECTLCMKIREGGHNIKIIRNGPCGASAAA
With B2 the IC50 (active hMMP-9(cat)_F110A) was 69 nM, the IC50 (active hMMP-9(cat)_L187A) was 120 nM and the IC50 (active hMMP-9(cat)_Y179A) was 55 nM. For the same binder, the IC50 (active hMMP-9(cat)_His6 [2]) was 1.1 nM, the IC50 (active hMMP-9(cat)_Y393A) was 48 nM and the IC50 (active hMMP-9(cat)_L397A) was 37 nM. It also gave an IC50 (active hMMP-9(cat)_Y423A) of 230 nM, an IC50 (active hMMP-9(cat)_V398A) of 39 nM and an IC50 (active hMMP-9(cat)_R424T) of 31 nM. The IC50 (active hMMP-9(cat)_M422I) was 45 nM and the IC50 (active hMMP-9(cat)_Y420A) was 54 nM.

B3: active MMP-9-binding peptide M91011 (designed binder)
chain: GSGMKETAAAKFERQHMDSPDLGTDDDDKAMADIGSANSDPQFGLFSKYRTPNCMMYKYAQCSHKSQPVCGSDMSTYANECTLCMKIREGGHNIKIIRNGPCGASAAA
Work on B3 yielded an IC50 (active hMMP-9(cat)_F110A) of 7.3 nM, an IC50 (active hMMP-9(cat)_Y179A) of 81 nM and an IC50 (active hMMP-9(cat)_Y393A) greater than 950 nM. It also gave an IC50 (active hMMP-9(cat)_L397A) of 57 nM, an IC50 (active hMMP-9(cat)_Y423A) greater than 330 nM and an IC50 (active hMMP-9(cat)_V398A) of 79 nM. For the same binder, the IC50 (active hMMP-9(cat)_R424T) was 45 nM, the IC50 (active hMMP-9(cat)_M422I) was 43 nM and the IC50 (active hMMP-9(cat)_Y420A) was 33 nM.

Reference: patent publication US20200231654A1 (published 2020)
